Drawing on paper PMC7718258, this text covers Kd, IC50 and binding signal (fold less efficient than mjtRNALys) for three substances.

Data set [1] addresses T1, mjCgi121;mjBud32;mjKae1;pfPcc1 (Methanocaldococcus jannaschii;Methanocaldococcus jannaschii;Methanocaldococcus jannaschii;Pyrococcus furiosus) (UniProt Q57646+Q58530+Q58530+Q9V1Z9).
T1 sequence 1: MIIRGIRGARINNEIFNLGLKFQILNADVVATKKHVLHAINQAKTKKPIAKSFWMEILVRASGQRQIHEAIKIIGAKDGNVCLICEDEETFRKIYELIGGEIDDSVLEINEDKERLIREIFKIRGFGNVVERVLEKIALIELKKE
T1 sequence 2: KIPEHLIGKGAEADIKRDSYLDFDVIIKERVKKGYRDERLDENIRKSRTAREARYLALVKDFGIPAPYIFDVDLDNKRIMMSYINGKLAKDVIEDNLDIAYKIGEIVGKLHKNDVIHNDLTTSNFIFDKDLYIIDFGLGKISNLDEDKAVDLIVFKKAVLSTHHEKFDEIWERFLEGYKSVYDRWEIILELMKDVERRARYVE
T1 sequence 3: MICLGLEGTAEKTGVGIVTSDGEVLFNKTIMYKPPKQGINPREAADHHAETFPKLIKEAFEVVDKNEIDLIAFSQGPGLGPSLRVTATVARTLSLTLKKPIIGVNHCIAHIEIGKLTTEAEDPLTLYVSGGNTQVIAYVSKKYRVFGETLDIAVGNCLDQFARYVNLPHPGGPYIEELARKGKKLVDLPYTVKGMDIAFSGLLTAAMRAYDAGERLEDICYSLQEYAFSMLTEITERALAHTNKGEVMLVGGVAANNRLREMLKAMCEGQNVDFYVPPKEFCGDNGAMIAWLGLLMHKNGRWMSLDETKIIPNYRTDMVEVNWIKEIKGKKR
T1 sequence 4: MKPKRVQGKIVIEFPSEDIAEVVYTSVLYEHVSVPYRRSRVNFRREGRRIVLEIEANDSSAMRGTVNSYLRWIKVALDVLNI
Kind of data set: fluorescence polarization. The settings on record: 20 mM HEPES pH 7.5, 100 mM NaCl, 2 mM DTT; filter binding 50 nM 32P-tRNA, 1 h, room temperature; FP 50 nM 647-CCA; NMR 25 C with 10% D2O. (In fluorescence polarisation assays a small probe gives low polarisation when free and higher when bound to something large.)

For data set [2], the target named is T2, mjCgi121;mjBud32 (Methanocaldococcus jannaschii;Methanocaldococcus jannaschii) (UniProt Q57646+Q58530).
T2 sequence 1: T1 sequence 1
T2 sequence 2: T1 sequence 2
The data set can be described thus: competition. The conditions noted are these: displacement of 647-CCA (FP), 0.8 uM protein; 20 mM HEPES pH 7.5, 100 mM NaCl, 2 mM DTT; filter binding 50 nM 32P-tRNA, 1 h, room temperature; FP 50 nM 647-CCA; NMR 25 C with 10% D2O.

For data set [3], the target named is mjCgi121;mjBud32 E152R (Methanocaldococcus jannaschii;Methanocaldococcus jannaschii) (UniProt Q57646). The data set can be described thus: competition. The conditions noted are these: displacement of 647-CCA (FP), 0.8 uM protein; 20 mM HEPES pH 7.5, 100 mM NaCl, 2 mM DTT; filter binding 50 nM 32P-tRNA, 1 h, room temperature; FP 50 nM 647-CCA; NMR 25 C with 10% D2O.

Data set [4] has as its target mjCgi121;mjBud32 R60E (Methanocaldococcus jannaschii;Methanocaldococcus jannaschii) (UniProt Q57646). Kind of data set: competition. The settings on record: displacement of 647-CCA (FP), 0.8 uM protein; 20 mM HEPES pH 7.5, 100 mM NaCl, 2 mM DTT; filter binding 50 nM 32P-tRNA, 1 h, room temperature; FP 50 nM 647-CCA; NMR 25 C with 10% D2O.
The target in data set [5] is T3, mjCgi121 (Methanocaldococcus jannaschii) (UniProt Q57646).
T3 sequence: T1 sequence 1
The data set can be described thus: competition. The conditions noted are these: displacement of 647-CCA (FP); 20 mM HEPES pH 7.5, 100 mM NaCl, 2 mM DTT; filter binding 50 nM 32P-tRNA, 1 h, room temperature; FP 50 nM 647-CCA; NMR 25 C with 10% D2O.

One may read the Kd as the equilibrium constant for the complex coming apart. As to CCGCCA [647-CCA], the dissociation constant (Kd) in data set [1] worked out at 263 nM. The IC50 is the concentration that gives 50% inhibition. Take mjtRNALysUUU: the half-inhibitory concentration (IC50) in data set [2] worked out at 1200 nM; in data set [3], 600 nM; in data set [4], 7600 nM. Substance mjtRNAValCAC registered a binding signal (fold less efficient than mjtRNALys) in data set [5] of 7.3.
